Values belong to the binder of their own block, whether it stands above or below them.
Columns and labels:
[1] = target: BCMA on BCMA-expressing cells (H929 / NCI-H929, MM1.S, U266, Daudi) (human) (UniProt Q02223); experiment: flow cytometry on H929 cells; antibody 0.195 ng/ml
[2] = target: BCMA on BCMA-expressing cells (H929 / NCI-H929, MM1.S, U266, Daudi) (human) (UniProt Q02223); experiment: flow cytometry on H929 cells; antibody 3.130 ng/ml
[3] = target: BCMA on BCMA-expressing cells (H929 / NCI-H929, MM1.S, U266, Daudi) (human) (UniProt Q02223); experiment: flow cytometry on H929 cells; antibody 6.250 ng/ml
[4] = target: BCMA on BCMA-expressing cells (H929 / NCI-H929, MM1.S, U266, Daudi) (human) (UniProt Q02223); experiment: flow cytometry on H929 cells; antibody 25.000 ng/ml
[5] = target: BCMA on BCMA-expressing cells (H929 / NCI-H929, MM1.S, U266, Daudi) (human) (UniProt Q02223); experiment: flow cytometry on MM1.S cells; antibody 0.195 ng/ml
[6] = target: BCMA on BCMA-expressing cells (H929 / NCI-H929, MM1.S, U266, Daudi) (human) (UniProt Q02223); experiment: flow cytometry on MM1.S cells; antibody 0.391 ng/ml
[7] = target: BCMA on BCMA-expressing cells (H929 / NCI-H929, MM1.S, U266, Daudi) (human) (UniProt Q02223); experiment: flow cytometry on MM1.S cells; antibody 0.781 ng/ml
[8] = target: BCMA on BCMA-expressing cells (H929 / NCI-H929, MM1.S, U266, Daudi) (human) (UniProt Q02223); experiment: flow cytometry on MM1.S cells; antibody 1.560 ng/ml
[9] = target: BCMA on BCMA-expressing cells (H929 / NCI-H929, MM1.S, U266, Daudi) (human) (UniProt Q02223); experiment: flow cytometry on MM1.S cells; antibody 6.250 ng/ml
[10] = target: BCMA on BCMA-expressing cells (H929 / NCI-H929, MM1.S, U266, Daudi) (human) (UniProt Q02223); experiment: flow cytometry on H929 cells; antibody 100.000 ng/ml
[11] = target: BCMA on BCMA-expressing cells (H929 / NCI-H929, MM1.S, U266, Daudi) (human) (UniProt Q02223); experiment: flow cytometry on MM1.S cells; antibody 25.000 ng/ml
[12] = target: BCMA on BCMA-expressing cells (H929 / NCI-H929, MM1.S, U266, Daudi) (human) (UniProt Q02223); experiment: flow cytometry on MM1.S cells; antibody 50.000 ng/ml
[13] = target: recombinant BCMA (R&D Systems, catalog no. 193-BC) (human) (UniProt Q02223); experiment: competitive ELISA, plate-bound BCMA; Ab 0.002 ng/mL; competitor APRIL 0.00 ng/mL
recombinant BCMA (R&D Systems, catalog no. 193-BC) (human), sequence (Q02223 5-51 limits assumed): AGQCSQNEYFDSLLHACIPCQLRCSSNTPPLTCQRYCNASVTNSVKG

[14] = target: recombinant BCMA (R&D Systems, catalog no. 193-BC) (human) (UniProt Q02223); experiment: competitive ELISA, plate-bound BCMA; Ab 0.020 ng/mL; competitor APRIL 0.00 ng/mL
[15] = target: recombinant BCMA (R&D Systems, catalog no. 193-BC) (human) (UniProt Q02223); experiment: competitive ELISA, plate-bound BCMA; Ab 2.000 ng/mL; competitor APRIL 62.50 ng/mL
[16] = target: recombinant BCMA (R&D Systems, catalog no. 193-BC) (human) (UniProt Q02223); experiment: competitive ELISA, plate-bound BCMA; Ab 0.002 ng/mL; competitor APRIL 250.00 ng/mL
[17] = target: recombinant BCMA (R&D Systems, catalog no. 193-BC) (human) (UniProt Q02223); experiment: competitive ELISA, plate-bound BCMA; Ab 0.020 ng/mL; competitor APRIL 125.00 ng/mL
[18] = target: recombinant BCMA (R&D Systems, catalog no. 193-BC) (human) (UniProt Q02223); experiment: competitive ELISA, plate-bound BCMA; Ab 2.000 ng/mL; competitor APRIL 250.00 ng/mL
[19] = target: recombinant BCMA (R&D Systems, catalog no. 193-BC) (human) (UniProt Q02223); experiment: competitive ELISA, plate-bound BCMA; Ab 20.000 ng/mL; competitor APRIL 15.63 ng/mL
[20] = target: recombinant BCMA (R&D Systems, catalog no. 193-BC) (human) (UniProt Q02223); experiment: competitive ELISA, plate-bound BCMA; Ab 20.000 ng/mL; competitor APRIL 62.50 ng/mL
[21] = target: recombinant BCMA (R&D Systems, catalog no. 193-BC) (human) (UniProt Q02223); experiment: competitive ELISA, plate-bound BCMA; Ab 200.000 ng/mL; competitor APRIL 7.81 ng/mL
[22] = target: recombinant BCMA (R&D Systems, catalog no. 193-BC) (human) (UniProt Q02223); experiment: competitive ELISA, plate-bound BCMA; Ab 20.000 ng/mL; competitor APRIL 125.00 ng/mL
[23] = target: recombinant BCMA (R&D Systems, catalog no. 193-BC) (human) (UniProt Q02223); experiment: competitive ELISA, plate-bound BCMA; Ab 200.000 ng/mL; competitor APRIL 15.63 ng/mL
[24] = target: recombinant BCMA (R&D Systems, catalog no. 193-BC) (human) (UniProt Q02223); experiment: competitive ELISA, plate-bound BCMA; Ab 200.000 ng/mL; competitor APRIL 250.00 ng/mL
[25] = target: recombinant BCMA (R&D Systems, catalog no. 193-BC) (human) (UniProt Q02223); experiment: competitive ELISA, plate-bound BCMA; Ab 200.000 ng/mL; competitor APRIL 500.00 ng/mL
[26] = target: BCMA on BCMA-expressing cells (H929 / NCI-H929, MM1.S, U266, Daudi) (human) (UniProt Q02223); experiment: flow cytometry on MM1.S cells; antibody 0000 ng/ml (background)

BCMA on BCMA-expressing cells (H929 / NCI-H929, MM1.S, U266, Daudi) (human), sequence (Q02223 whole entry): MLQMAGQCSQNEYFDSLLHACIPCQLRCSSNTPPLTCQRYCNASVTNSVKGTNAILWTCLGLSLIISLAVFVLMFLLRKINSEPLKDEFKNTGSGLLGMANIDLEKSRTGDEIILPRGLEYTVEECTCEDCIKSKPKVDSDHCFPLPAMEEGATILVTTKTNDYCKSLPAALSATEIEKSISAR

MFI [1]: 5010
MFI [2]: 5140
MFI [3]: 5220
MFI [4]: 6610
MFI [5]: 2010
MFI [6]: 2030
MFI [7]: 2010
MFI [8]: 2030
MFI [9]: 2110
MFI [10]: 20900
MFI [11]: 2340
MFI [12]: 2930
A450-A570 [13]: 0.0578
A450-A570 [14]: 0.057
A450-A570 [15]: 0.098
A450-A570 [16]: 0.0607
A450-A570 [17]: 0.0557
A450-A570 [18]: 0.0921
A450-A570 [19]: 0.778
A450-A570 [20]: 0.537
A450-A570 [21]: 2.47
A450-A570 [22]: 0.637
A450-A570 [23]: 2.37
A450-A570 [24]: 2.21
A450-A570 [25]: 1.41
MFI [26]: 2990
B1: AntiX**BCMA_F7E_F7E (bispecific antibody, part only; not given: other chains of three-chain format, not shown: another chain or arm of the molecule)
tandem VH: QVQLVESGGGLVQPGGSLRLSCVASGFTFSSNAMSWVRQAPGKGLEWVSAISGSGDYTHYSDSVKGRFTISRDNSKNTLYLQMNSLRAEDTAVYYCAKEVPGGPLVDFDSRGQGTLVTVSSGGGGSGGGGSQVQLVESGGGLVQPGGSLRLSCVASGFTFSSNAMSWVRQAPGKGLEWVSAISGSGDYTHYSDSVKGRFTISRDNSKNTLYLQMNSLRAEDTAVYYCAKEVPGGPLVDFDSRGQGTLVTVSS

MFI [1]: 5030
MFI [2]: 5170
MFI [3]: 5240
MFI [4]: 5480
MFI [5]: 2070
MFI [6]: 2070
MFI [7]: 2060
MFI [8]: 2110
MFI [9]: 2130
MFI [10]: 7560
MFI [11]: 2130
MFI [12]: 2180
A450-A570 [13]: 0.0616
A450-A570 [14]: 0.063
A450-A570 [15]: 0.0834
A450-A570 [16]: 0.0647
A450-A570 [17]: 0.064
A450-A570 [18]: 0.0837
A450-A570 [19]: 0.482
A450-A570 [20]: 0.359
A450-A570 [21]: 2.51
A450-A570 [22]: 0.203
A450-A570 [23]: 2.4
A450-A570 [24]: 0.969
A450-A570 [25]: 0.482
MFI [26]: 2990
B2: anti-BCMA heavy chain-only antibody (UniAb) with the VH of SEQ ID NO: 12 (antibody, V domains shown)
VH: QVQLVESGGGLVQPGGSLRLSCVASGFTFSSNAMSWVRQAPGKGLEWVSAISGSGDYTHYSDSVKGRFTISRDNSKNTLYLQMNSLRAEDTAVYYCAKEVPGGPLVDFDSRGQGTLVTVSS
notes: Heavy chain-only antibody from UniRat; also called Clone ID No: 316302
